Experiments:
[1] = test system: circHomer1a; test: circHomer1a expression (circRNA qRT-PCR) after 2 day drug treatment of stem cell-derived mixed neuronal and astrocyte cultures; format: cell-based; conditions: 2 days treatment, human 6-9 month differentiated stem cell-derived mixed neuronal and astrocyte cultures
Source text: FIG. 6A is a representative bright-field image from 6-9 month differentiated human embryonic stem cell (hESC)-derived mature mixed neuronal and glial cultures.
FIG. 6B is an immunofluorescence image showing the presence of neurons (MAP2, red) and astrocytes (GFAP, green). Scale bar=100 μm.
05, two-tailed one sample t-test. The number of replicates is also shown within the graph.

[2] = test system: OFC of subjects with SCZ and BD; test: circRNA-specific qRT-PCR in postmortem OFC of SCZ, BD and Control subjects; set-up: species or system human; conditions: for circRNA expression in OFC, BD patients vs unaffected Controls / circRNA expression in OFC, SCZ patients vs unaffected Controls: qRT-PCR, postmortem OFC
Source text: 05, based on general linear model correcting for RIN, PMI, RI, and brain pH. A schematic showing the multi-exonic nature of circADAM22 is also shown.
In FIGS. 4A-C, E-F **p<. 01, based on a Univariate General Linear Model corrected for RIN, PMI, RI, and brain pH.
A schematic of the exonic nature of circHomer1b is also shown. In all graphs individual SCZ, BD, and Control sample values are shown. ***p<. 001, based on general linear model correcting for RIN, PMI, RI, and brain pH.
(§1) Given that harsh RNAseR treatment can partially digest some circRNAs together with all linear RNAs, thus making circRNA screening semi-quantitative, the present disclosure also provides novel validated and sequence-verified circRNA-specific qRT-PCR primers aimed at the unique circRNA-specific splice junction, which enable the measurement of a subset of dysregulated circRNAs in non RNaseR-treated samples. These primers are shown in FIGS. 3C, 8B, and 14A, B (See also SEQ ID NOS. 2, 3, 5, 6, 8, 9, 11 or 12).

[3] = test system: orbitofrontal cortex (OFC) of subjects with Bipolar Disorder; test: circRNA microarray profiling, OFC of subjects with Bipolar Disorder vs unaffected Controls (Table 3); set-up: species or system human
Source text: (§2) Example of circRNA array raw image is also shown.
(§3) The circRNAs in Tables 3 and 4 were identified by profiling circRNA expression in OFC RNA samples from 34 SCZ, 32 BD, and 34 unaffected control subjects from the Stanley Medical Research Institute.
Additional methods for identifying these brain disorder-associated circRNA biomarkers are discussed below.

[4] = test system: DLPFC of subjects with SCZ and BD; test: circRNA-specific qRT-PCR in postmortem DLPFC of SCZ, BD and Control subjects; set-up: species or system human
Source text: In all graphs individual SCZ, BD, and Control sample values are shown.
A schematic of the exonic nature of circHomer1b is also shown.
as §1

[5] = test system: stem cell-derived (iPSC) neuronal cultures from patients with SCZ and BD; test: circHomer1a levels in iPSC-derived neuronal cultures from SCZ and BD patients vs Control; format: cell-based, human
Source text: 05, two-tailed one sample t-test relative to the Control of the same developmental time-point.
05, two-tailed one sample t-test relative to the Control of the same developmental time-point. In all graphs individual samples are shown.

[6] = test system: OFC of subjects with Schizophrenia; test: circRNA microarray profiling, OFC of subjects with Schizophrenia vs unaffected controls (Table 4); set-up: species or system human; conditions: relative to Control fold change of circRNA expression
Source text: as §2
FIG. 1C is a volcano plot showing differential circRNA expression in SCZ patients vs unaffected Controls (x-axis=relative to control log 2 fold changes; y-axis: negative log 10 of the p-values). Vertical lines correspond to >1.25-fold changes, and the horizontal line represents p<. 05. Example of validated circRNAs are shown in the graph.
as §3
All circRNA array experiments used for Tables 1-4 were performed by employing a commercially available circRNA microarray platform that uses 13,617 circRNA splice junction probes designed based on previous RNA sequencing and circRNA annotation data (Service sold by Arraystar Inc.). Analysis of circRNA changes in postmortem brain samples from the OFC of subjects with BD uncovered a subset of differentially expressed circRNAs (Table 3) a subset of which stemmed from genes related to synaptic transmission, neuronal development and migration, and short term memory (FIGS. 1A-C, 2A-B), whereas altered circRNAs in SCZ (Table 4 and FIGS. 1A-C, 2A-B) were associated, among others, with the mitogen-activated protein kinase (MAPK/ERK) and protein kinase B (PKB/AKT) pathways. […]

| Molecule | circHomer1a expression relative to Vehicle [1] | circRNA expression in OFC, BD patients vs unaffected Controls [2] | circRNA expression in OFC, SCZ patients vs unaffected Controls [2] | circRNA expression in DLPFC, BD patients vs unaffected Controls [4] | also measured |
| --- | --- | --- | --- | --- | --- |
| O=C(CCCN1CCC(O)(c2ccc(Cl)cc2)CC1)c1ccc(F)cc1 [Haloperidol] | lack of effect | – | – | – | – |
| CCCC(CCC)C(=O)O [Valproic acid, valproic acid] | increase | – | – | – | – |
| circHomer1a: circRNA derived from exons 2-5 of Homer protein homolog 1 (HOMER1) (nucleic acid, listed as Homo sapiens, circular RNA) GGAACAACCTATCTTCAGCACTCGAGCTCATGTCTTCCAAATTGACCCAAACACAAAGAAGAACTGGGTACCCACCAGCAAGCATGCAGTTACTGTGTCTTATTTCTATGACAGCACAAGAAATGTGTATAGGATAATCAGTTTAGATGGCTCAAAGGCAATAATAAATAGTACCATCACCCCAAACATGACATTTACTAAAACATCTCAGAAGTTTGGCCAGTGGGCTGATAGCCGGGCAAACACCGTTTATGGATTGGGATTCTCCTCTGAGCATCATCTTTCGAAATTTGCAGAAAAGTTTCAGGAATTTAAAGAAGCTGCTCGACTAGCAAAGGAAAAATCACAAGAGAAGATGGAACTTACCAGTACACCTTCACAGGAATCCGCAGGCGGGGATCTTCAGTCTCCTTTAACACCGGAAAGTATCAACGGGACAGATGATGAAAGAACACCTGATGTGACACAGAACTCAGAGCCAAGGGCTGAACCAACTCAGAATGCATTGCCATTTTCACATAG | – | reduced | reduced | reduced | correlation of expression with duration of illness ([2]; SCZ and BD patients (FIGS. 4H, 5D; OFC and DLPFC)): positively correlated; correlation of expression with age of onset of disease ([2]; SCZ patients (FIGS. 4G, 5C; OFC and DLPFC)): positively correlated; Fold BD OFC ([3]; circRNA expression, OFC of subjects with Bipolar Disorder vs unaffected Controls): 0.6440; circRNA expression in DLPFC, SCZ patients vs unaffected Controls ([4]; SCZ): reduced; circHomer1a expression in iPSC neuronal cultures, patients vs Control [5]: reduced |
| circHomer1b: circRNA generated from the backsplicing of exons 2 and 3 of HOMER1 pre-mRNA (nucleic acid, listed as Homo sapiens, circular RNA, circRNA generated from the backsplicing of exons 2 and 3 of HOMER1 pre-mRNA) GGAACAACCTATCTTCAGCACTCGAGCTCATGTCTTCCAAATTGACCCAAACACAAAGAAGAACTGGGTACCCACCAGCAAGCATGCAGTTACTGTGTCTTATTTCTATGACAGCACAAGAAATGTGTATAGGATAATCAGTTTAGATGGCTCAAAGGCAATAATAAATAGTACCATCACCCCAAACATGACATTTACTAAAACATCTCAGAAGTTTGGCCAGTGGGCTGATAGCCGGGCAAACACCGTTTATGGATTGGGATTCTCCTCTGAGCATCATCTTTCGAAA | – | reduced | reduced | not | – |
| circADAM22: circRNA derived from the epilepsy-related gene ADAM metallopeptidase domain 22 (ADAM22) (nucleic acid, listed as Homo sapiens, circular RNA) GTGAATGTAAATGCGAGGACACGTGGTCCGGGTGCATAATGGGAGACACTGGCTATTATCTTCCTAAAAAGTTCACCCAGTGTAATATTGAAGAGTATCATGACTTCCTGAATAGTGGAGGTGGTGCCTGCCTTTTCAACAAACCTTCTAAGCTTCTTGATCCTCCTGAGTGTGGCAATGGCTTCATTGAAACTGGAGAGGAGTGTGATTGTGGAACCCCGGCCGAATGTGTCCTTGAAGGAGCAGAGTGTTGTAAGAAATGCACCTTGACTCAAGACTCTCAATGCAGTGACGGTCTTTGCTGTAAAAAGTGCAAGTTTCAGCCTATGGGCACTGTGTGCCGAGAAGCAGTAAATGATTGTGATATTCGTGAAACGTGCTCAGGAAATTCAAGCCAGTGTGCCCCTAATATTCATAAAATGGATGGATATTCATGTGATGGTGTTCAGGGAATTTGCTTTGGAGGAAGATGCAAAACCAGAGATAGACAATGCAAATACATTTGGGGGCAAAAGGTGACAGCATCAGACAAATATTGCTATGAGAAACTGAATATTGAAGGGACGGAGAAGGGTAACTGTGGGAAAGACAAAGACACATGGATACAGTGCAACAAACGGGATGTGCTTTGTGGTTACCTTTTGTGTACCAATATTGGCAATATCCCAAGGCTTGGAGAACTCGATGGTGAAATCACATCTACTTTAGTTGTGCAGCAAGGAAGAACATTAAACTGCAGTGGTGGGCATGTTAAGCTTGAAGAAGATGTAGATCTTGGCTATGTGGAAGATGGGACACCTTGTGGTCCCCAAATGATGTGCTTAGAACACAGGTGTCTTCCTGTGGCTTCTTTCAACTTTAGTACTTGCTTGAGCAGTAAAGAAGGCACTATTTGCTCAGGAAATGGAGTTTGCAGTAATGAGCTGAAGTGTGTGTGTAACAGACACTGGATAGGTTCTGATTGCAACACTTACTTCCCTCACAATGATGATGCAAAGACTGGTATCACTCTGTCTGGCAATGGTGTTGCTGGCACCAATATCATAATAGGCATAATTGCTGGCACCATTTTAGTGCTGGCCCTCATATTAGGAATAACTGCGTGGGGTTATAA | – | decreased expression | unchanged | – | Fold BD OFC ([3]; circRNA expression in OFC, Bipolar Disorder vs unaffected Controls): 0.5247 |
| circCUL4A: circRNA biomarker for brain disorders, increased in OFC of SCZ patients (nucleic acid, listed as Homo sapiens, circular RNA, circRNA biomarker for brain disorders, increased in OFC of SCZ patients) GTCACGTCCCGTGTGGCTGTGGAGATCTCTGTGTGACTATGGAGGTTTCATCCATGTGGCTCTGAAGGTCTCTGTGTGACTATGGAGGTCGCGTCCCATGTGGCTGTGGAGGTCGCTGTGTGGCTATGGAG | – | unchanged | increased expression | – | Fold SCZ OFC [6]: 1.4626 |

From US20260132464A1, “CIRCULAR RNAS FOR THE DIAGNOSIS AND TREATMENT OF BRAIN DISORDERS” (UNM Rainforest Innovations, priority 2018, published 2026)
